Source: the nanobody polyreactivity screen of Harvey et al. (2022)

Assay: yeast display, Sf9 membrane polyspecificity reagent, FACS + sequencing; frameworks hold sequencing errors
How it was run: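 Galactose induction of a Saccharomyces cerevisiae BJ5465 synthetic nanobody display library ran 36–48 hours. The cells were then stained for 1 hour at 4 °C with 10% biotinylated, detergent-solubilized Sf9 membrane reagent, pulled down on streptavidin microbeads and FACS-sorted into low and high (top ~1%) gates on expression and reagent-binding fluorescence. Labels for polyreactivity follow the gate of origin.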

Sequence | polyreactivity (PSR sort gate)
QVQLVESGGGLVQAGGSLRLSCAPSGIIFLGYMGWYRQAPGKEREFVADITFSVDGTYYADSVKGRFTISRDNAKNTVYLQMNSLKPEDNAVYYCAAVSDLQAGTMEYWGQGTEVTVSS | high polyreactivity
QVQLVESGGGLVQAGGSLRLSCADSGSIFNGNTMGWYRQAPGKERELVAAITSGGRTYYADSVKGRFTISRDNAKNTVYLQMNSLKPEDTAVYYCATRNPYYRSYYSYDYWGQGTQVTVSS | high polyreactivity
QVQLVESAVGLVQAGGSHRLSCAASAGTFYFYAMGWYRQAPGKERELVATITRGGSTYYADSVKGRFTISRDNAKNTVYLQMNSLNPEDTAVYYCAARQYSRRRSPVSTWYYYWGQGTQVTVSS | high polyreactivity
QVQLVESGGGLVQAGGSLRLSCAAYGRIFKYYVMGWYRQAPGKERELVATISSGSGTNYADSVKGRFTISRDNAKNTVYLQMNSLKPEDTAVYYCAARWTPRVRGYNYWGQGTLVTVSS | high polyreactivity
QVQLVESGGGLVQAGGSRRLCCAASGITLPVYGMGWYIQAPGKERELVAVIDIVGITNYADSVKGRFPISRDNAKNTVYLMMNSLKPEDTAVYYCAKRYVYIADGGEYYYLGQGTQVTVSS | low polyreactivity
QVQLEESGGGLVQAGGSLRLSSAASGRIFGGYAMGWYRQAPGKEREMVAAITQSGGSTYYADSVKGRFTISRDNAKNTVYLQMNSLTAEDTAVYYCNARLARGYWTPGKERPMEYWGQGTQVTVSS | low polyreactivity
QVKLVESGGGLVQAGGSLRLSFPASGRTFKYYAMGLYRQEPGKDRELVAAISWSGGSTYYADSVKGRFTISRDNEKNTVYLQMNSLKPEDTAVYYCAAVRHYHGTWYDYWGQGTQVTVSS | high polyreactivity
QVQLQESGGGLVQAGGSLRLTCAASGSISAVAAMGWYRQAPGKEREFAASVNWGTNTNYADSLKGRFTISRDNAINTLYLQMNSLNPEDTAVYYCGVLPDWETRHDYWGHGTQVTVSS | low polyreactivity
QVQLVESGGGLVQAGGSLRLSCAASGIIVEYYTMGWKRQAPGKERELVASITYDGDTTYYADSVKGRFTISRDNAKITVYLQMNSRKPEDTAVYYCAADYYYVYSSFGHYYWGQGTQVTVSS | low polyreactivity
QVQLVESGGGLVQAGGSLRLSCAASGRLFRWYAMGGYRQAPGKERELVAAISRSGTSTYYADSVKGRFTISRDNAKNSVYLQMNSLKPEDTAVYYCAADAVIFGMDYWGQGTQVTVSS | low polyreactivity
QVQLVESGGGLVQAGGSLRLSCAASGRIFARYAMGWYRQAPGKERELVAAITGGGRTNYADSVKGRFTISRDNAKNTVYLQMNSLKPEDTAVYYCAADTGYQNGKGLGYQNFGGYYWGQGTQVTVSS | high polyreactivity
QVQLVESGGGLVQAGGSLRLSCAASGFTFGYYAMGWYRQAPGKERELVASMTVRGGSTYYADSVKGRFTISRDNAKNTVYLQINSLKPEDTAVYYCAAKRYPTWYPSQRSRYDSWGQGTQVTVSS | high polyreactivity
QVQLVESRGGLVQAGGSLRLSCAASGFTFYYYAMGWYRQAPGKERELVAAISGRGGSTYYADSVKGRFTISRDNAKNSVYLQMNSLKPEDTAVYYCAAVPIVRLEYWGQGTQVTVSS | high polyreactivity
QVQLVESGGGLDHAGGSLRLSCAPSGRIFSVNAMGWYRQAPGKERELVAAITSGDSTNYADSVKGRFTISRDNAKNTVYLQSNSMKQEDTAVYYCNARGSQELWRRKWYHTEYDSWGQGTQVSVSS | low polyreactivity
QVQLVESGGGLVQAGGSLRLSCAASGSISYRYDMGWYRQSPGKERELVATIRSGGSTNYADSVKGRFTISRDNAKNTVYLQMNSLKPEDTAVYYCAARLYARKKLHFSADSDYWGQGSQVTVSS | low polyreactivity
QVQLVESGGGLVQAGGSLRLSCAASGFIYNKYTMGWYRQAPGKERELVAAIRSSGGSTYYADSVKGRFTISRDNAKNTVYLQMNSLKPEDTAVYYCNALPYQVWKRYSWGQGTQVTVSS | high polyreactivity
QVQLVESGGGLVQAGGSLRLSCAASGSTFPYYTMGGYRQAPGKERELVAAISWRGGSTYYADTVKGRFSISRDNAKNTVYLQMNSLKPEDTAVYYCAARYGVFGYDYWGQGTQVTVSS | high polyreactivity
